# T1: AXL fragment # 1 (AXL amino acids 135-226, IgL2)
# T1 chain: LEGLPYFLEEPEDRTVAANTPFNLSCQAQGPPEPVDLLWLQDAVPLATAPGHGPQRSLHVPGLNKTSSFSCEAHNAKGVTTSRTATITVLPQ
# T2: AXL fragment # 7 (AXL amino acids 135-335, IgL2+FN III-1)
# T2 chain: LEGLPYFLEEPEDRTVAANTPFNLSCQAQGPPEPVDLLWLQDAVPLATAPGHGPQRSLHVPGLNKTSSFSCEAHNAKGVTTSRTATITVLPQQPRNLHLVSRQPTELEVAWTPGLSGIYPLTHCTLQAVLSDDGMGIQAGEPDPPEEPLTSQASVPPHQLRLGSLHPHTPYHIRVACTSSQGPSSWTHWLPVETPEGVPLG
# T3: human AXL expressed on the cell surface of tumor cell lines (human, UniProt P30530 26-894)
# T3 construct: whole, on cells; also called cell surface-expressed AXL; cell-based AXL
# T3 sequence (looked up): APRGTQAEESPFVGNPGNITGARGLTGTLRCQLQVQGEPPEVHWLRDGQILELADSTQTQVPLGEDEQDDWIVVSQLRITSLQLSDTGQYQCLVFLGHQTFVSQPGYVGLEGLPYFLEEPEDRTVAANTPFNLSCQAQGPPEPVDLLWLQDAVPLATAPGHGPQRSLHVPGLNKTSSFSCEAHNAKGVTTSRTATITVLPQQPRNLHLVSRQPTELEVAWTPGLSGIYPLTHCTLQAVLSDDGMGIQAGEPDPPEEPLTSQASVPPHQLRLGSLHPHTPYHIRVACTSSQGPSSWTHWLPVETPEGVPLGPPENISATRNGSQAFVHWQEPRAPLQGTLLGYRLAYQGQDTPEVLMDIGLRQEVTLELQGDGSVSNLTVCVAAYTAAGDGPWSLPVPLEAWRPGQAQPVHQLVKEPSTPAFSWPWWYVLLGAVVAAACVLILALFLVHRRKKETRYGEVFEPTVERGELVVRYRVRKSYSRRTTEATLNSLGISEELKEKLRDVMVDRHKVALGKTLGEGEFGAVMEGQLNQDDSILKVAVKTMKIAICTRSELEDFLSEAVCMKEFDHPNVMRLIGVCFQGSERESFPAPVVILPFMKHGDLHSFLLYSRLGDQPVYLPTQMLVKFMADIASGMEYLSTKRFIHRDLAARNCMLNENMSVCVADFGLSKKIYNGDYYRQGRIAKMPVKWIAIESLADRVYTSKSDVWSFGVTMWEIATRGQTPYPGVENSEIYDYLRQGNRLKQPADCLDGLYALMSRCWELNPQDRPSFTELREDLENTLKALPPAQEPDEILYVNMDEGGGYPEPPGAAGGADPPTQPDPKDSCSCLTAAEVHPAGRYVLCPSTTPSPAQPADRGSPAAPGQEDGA
# T4: AXL fragment # 3 (AXL amino acids 26-138, IgL1)
# T4 chain: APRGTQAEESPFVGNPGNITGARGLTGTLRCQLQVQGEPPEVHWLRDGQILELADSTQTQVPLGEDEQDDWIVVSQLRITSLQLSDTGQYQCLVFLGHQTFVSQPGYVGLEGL
# T5: huTyro3-ECD displayed on yeast (human, UniProt Q06418 41-429)
# T5 construct: extracellular domain
# T5 sequence (looked up): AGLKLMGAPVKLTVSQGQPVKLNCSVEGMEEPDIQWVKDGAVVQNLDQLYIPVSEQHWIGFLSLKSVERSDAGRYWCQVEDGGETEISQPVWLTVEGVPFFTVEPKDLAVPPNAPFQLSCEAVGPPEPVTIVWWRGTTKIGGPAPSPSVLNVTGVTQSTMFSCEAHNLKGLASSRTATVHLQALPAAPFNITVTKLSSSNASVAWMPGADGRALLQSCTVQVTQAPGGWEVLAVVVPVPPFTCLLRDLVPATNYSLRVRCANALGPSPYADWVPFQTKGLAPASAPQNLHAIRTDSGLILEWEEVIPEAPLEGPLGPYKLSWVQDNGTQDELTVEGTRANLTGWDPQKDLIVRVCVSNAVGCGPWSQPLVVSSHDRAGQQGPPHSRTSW
# What was measured:
# [1] = target: T1, AXL fragment # 1 (AXL amino acids …); experiment: yeast surface display of hAXL fragments (Aga2-HA-(hAXL)-MYC), whole yeast cell ELISA, signal normalised to anti-MYC
# Text: (§1) Epitope mapping. […] The YSD vector (pPNL6) was from The Pacific Northwest National Laboratory, USA.
# [2] = target: T2, AXL fragment # 7 (AXL amino acids …); experiment: as above
# Text: as §1
# [3] = target: T3, human AXL expressed on the cell surface …; experiment: flow cytometry on H292 cells, apparent cell binding constant
# Method: Detection of antibody binding to surface AXL by flow cytometry. Prior to analysis, cells were plated such that they were not more than 80% confluent on the day of analysis. Cells were washed in PBS and harvested by the addition of cell dissociation buffer (Sigma). A cell suspension containing 2.5×10⁵ cells (in 500 μl corresponding cell culture media) was incubated with various concentrations (0.01-10 nM) of anti-AXL antibodies for 2 h at 4° C. (to prevent internalization). Following one wash with cell culture media, primary antibody was incubated with 2 μg DYLIGHT™ 488 conjugated AffiniPure goat anti-mouse IgG Alexa 488 secondary antibody (Jackson ImmunoResearch) in 100 μl of media for 1 h at 4° C. Prior to analysis, cell pellets were re-suspended in 300-500 μl media and filtered through a 50 μm nylon mesh filter to remove cell aggregates. Flow cytometry analyses were performed on 10,000 viable cells gated on forward scattering, side scattering parameters and propidium iodide dye exclusion using a BD LSRII flow Cytometer (Becton-Dickinson Biosciences, CA, USA) and a standard filter set using BD FACSDiva™ acquisition software, according to manufacturer's instructions.
# Specific detection of antibody binding was calculated as the mean fluorescent intensity of binding to each primary antibody after background level subtraction of the mean fluorescent intensity of binding in the absence of primary antibody (but containing detection antibody). Binding parameters Bmax, (maximum fluorescence signal at receptor saturation), and KD (apparent cell binding constant) were then determined using a One site—Specific binding with Hill slope model in GraphPad Prism v 6.0.
# [4] = target: T4, AXL fragment # 3 (AXL amino acids …); experiment: yeast surface display of hAXL fragments, whole yeast cell ELISA, signal normalised to anti-MYC
# Text: as §1
# [5] = target: T6, cyAXL-ECD displayed on yeast; experiment: yeast surface display ELISA, non-denatured yeast, goat anti-human F(ab')2-HRP
# T6 construct: extracellular domain; 'cy' read as cynomolgus
# [6] = target: T5, huTyro3-ECD displayed on yeast; experiment: as above
Binder,binding result [1],binding result [2],Kd [3],binding result [4],yeast ELISA signal normalized to myc expression level [5],yeast ELISA signal normalized to myc expression level [6]
"F111-5E9 (antibody, V domains shown, also called F111-5E9-2; mAb 5E9) VH: QIQLVQSGPELKKPGETVKISCKASGYTFTKYGMNWVKQAPGKGLKWMGWINTYTGEPTYADDFKGRFAFSLETSASTAYLQINNLTTEDMVTYFCAKGGYYSNPIYPMDYWGQGTSVTVSS VL: DIQMTQTTSSLSASLGDRVTISCRASQDINNYLNWYQQKPDGTVKLLIYYISRLHSGVPSRFSGSGSGTDYSLTISNLELEDVATYFCQQGNTLPFTFGSGTKLEIK",binds,binds,0.177 nM,no binding,–,–
"F107-10G1 (antibody, V domains shown, also called F107-10G1-3) VH: EVNLVESGGGVVKPGASLKLSCEASGFTFSNYGMSWVRQTSDKRLEWVASISGGGGRTYYLDNVKGRFIISRENAKNTLYLQMSSLKSEDTALFYCARGARASYFAMDYWGQGSSVTVSS VL: VIVMTQSHKFMSTSVGDRVSITCKASQDVTTAVAWYQQKPGQSPKLLIYWASTRHTGVPDRFTGSGSGTDYSLTISNVQTEDLAFYYCQQHFTTPLTFGAGTKLELK",–,–,0.101 nM,–,–,–
"hFC-F107-10G1 (antibody, human IgG1, kappa, V domains shown, Chimeric mAb, human IgG1 / human kappa constant regions; also called mAb F107-10G1) VH: EVNLVESGGGVVKPGASLKLSCEASGFTFSNYGMSWVRQTSDKRLEWVASISGGGGRTYYLDNVKGRFIISRENAKNTLYLQMSSLKSEDTALFYCARGARASYFAMDYWGQGSSVTVSS VL: VIVMTQSHKFMSTSVGDRVSITCKASQDVTTAVAWYQQKPGQSPKLLIYWASTRHTGVPDRFTGSGSGTDYSLTISNVQTEDLAFYYCQQHFTTPLTFGAGTKLELKR",–,–,–,–,1.14,-0.023
"NRC-sdAb001-Fc (VHH-human IgG1 Fc fusion) (Fc fusion, VHH fused N-terminally to human IgG1 Fc, made in HEK293 cells; also called NRC-sdAb0001-Fc; NRC-sdAb001-hIgG1; not shown: human IgG1 Fc) QVKLEESGGGLVQAGGSLRLSCTASASISSFDIMGWYRQAPGKQRELVAAITTLDIANYRDSVKGRFTISRDNAKNTVYLQMDSLKPEDTARYHCAAFQSDQNYWGQGTQVTVSS",–,–,–,–,0.824,0.017
"F107-8D12 (antibody, V domains shown, also called F107-8D12-2; mAb 8D12) VH: QVQLQQPGAELVKPGASVQLSCKASGYTFISFWINWVKQRPGQGLEWMGNIFPGSSSTNYNEKFKSKATLTVDKSSSTAYMQLSSLTSEDSAVYFCARDYYGGSPDYWGQGTTLTVSS VL: DIVMSQSPSSLAVSAGERVTMSCKSSQSLLNTRTRKNYLAWYQQKPGQSPKLLIYWASTRESGVPDRFTGSGSGTDFTLTISSVQAEDLAVYYCKQSYNLWTFGGGTKLEIK",–,–,0.088 nM,–,–,–
"F107-7H5 (antibody, V domains shown, also called F107-7H5-2; mAb 7H5) VH: QVQLQQPGAELVKPGASVKLSCKASGYTFTSYWINWVKQRPGQGLEWIGNIYPDSSSTNYNEKFKSKATLTVDKSSTTAYIQFSSLTSEDSAVYYCTRDTYGGSPDYWGQGTTLTVSS VL: DIVMSQSPSSLAVSAGEKVTMSCKSSQSLLNSRTRKIYLAWYQQKPGQSPKLLIYWASTRQSGVPDRFTGSGSGTDFTLTISSVQAEDLAVYYCKQSYNLWTFGGGTKLEIK",–,–,0.104 nM,–,–,–
"F111-3C8 (antibody, V domains shown, also called F111-3C8-2) VH: QVQLQQPGAELGKPGTSVKLSCKASGYTFTSYWMHWVKRVPGQGLEWIGNINPNSTSADYNEKFKRKATLTVDKSSSTAYMQLSTLTSEDSAVYYCTRPLMGPYWYFDVWGTGTTVTVSS VL: QIVLTQSPAIMSASPGEKVTISCSASSSVSYMYWYQQKPGSSPKPWIYRTSNLASGVPARFSGSGSGTSYSLTISSMEAEDAATYYCQQYHNYPPTFGGGTKLEIK",binds,binds,1.23 nM,no binding,–,–

# — patent US20240076389A1 (NATIONAL RESEARCH COUNCIL OF CANADA, published 2024)
